Experimental data: publication PMC2919722
Substitutions are numbered along the chain they refer to. Where two headings read alike, the source gives them in different places.

T1: GST-MBD1 MBD (1-161) (UniProt Q9UIS9 1-161)
T1 sequence: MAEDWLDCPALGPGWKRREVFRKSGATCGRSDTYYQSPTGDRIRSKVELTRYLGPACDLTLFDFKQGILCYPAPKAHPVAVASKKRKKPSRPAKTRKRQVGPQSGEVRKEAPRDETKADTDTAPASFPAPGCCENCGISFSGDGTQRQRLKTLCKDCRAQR

T2: MBD1 CXXC3 (UniProt Q9UIS9-5 252-344)
T2 sequence: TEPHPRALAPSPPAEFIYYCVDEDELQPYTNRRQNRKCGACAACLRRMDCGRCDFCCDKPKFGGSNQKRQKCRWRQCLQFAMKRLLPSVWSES

B1: TGmCGCA, methylated (dsDNA)
DNA 1: ACATGCCTCATTGCGCACTTAACTGCAGCT
DNA 2: AGCTGCAGTTAAGTGCGCAATGAGGCATGT
modifications: 5mC at CpG, both strands (implied)
B2: TCGG, unmethylated (dsDNA)
DNA 1: B1 DNA 1 with T12G, G13T, C16G
DNA 2: B1 DNA 2 with G15C, C18A, A19C
B3: TmCGG, methylated (dsDNA)
DNA 1: B1 DNA 1 with T12G, G13T, C16G
DNA 2: B1 DNA 2 with G15C, C18A, A19C
modifications: 5mC at CpG, both strands (implied)
B4: ACGG, unmethylated (dsDNA)
DNA 1: B1 DNA 1 with T12G, G13A, C16G
DNA 2: B1 DNA 2 with G15C, C18T, A19C
B5: GCGG, unmethylated (dsDNA)
DNA 1: B1 DNA 1 with T12G, C16G
DNA 2: B1 DNA 2 with G15C, A19C
B6: TTmCGCA, methylated (dsDNA)
DNA 1: B1 DNA 1 with G13T
DNA 2: B1 DNA 2 with C18A
modifications: 5mC at CpG, both strands (implied)
B7: CCGC, unmethylated (dsDNA)
DNA 1: B1 DNA 1 with T12G, G13C
DNA 2: B1 DNA 2 with C18G, A19C
B8: CCGT, unmethylated (dsDNA)
DNA 1: B1 DNA 1 with T12G, G13C, C16T
DNA 2: B1 DNA 2 with G15A, C18G, A19C
B9: CCGA, unmethylated (dsDNA)
DNA 1: B1 DNA 1 with T12G, G13C, C16A
DNA 2: B1 DNA 2 with G15T, C18G, A19C
B10: CCGG, unmethylated (dsDNA)
DNA 1: B1 DNA 1 with T12G, G13C, C16G
DNA 2: B1 DNA 2 with G15C, C18G, A19C
B11: CmCGC, methylated (dsDNA)
DNA 1: B1 DNA 1 with T12G, G13C
DNA 2: B1 DNA 2 with C18G, A19C
modifications: 5mC at CpG, both strands (implied)
B12: A/T run mutated, methylated (dsDNA)
DNA 1: ACATGCCTCATGCCGGACTCGACTGCAGCT
DNA 2: AGCTGCAGTCGAGTCCGGCATGAGGCATGT
modifications: 5mC at C14 and opposite strand CpG (implied)

What was measured:
Assay in all cases: EMSA
GST-MBD1 MBD (1-161) [1] = biological target: T1, GST-MBD1 MBD (1-161)
MBD1 CXXC3 = biological target: T2, MBD1 CXXC3
GST-MBD1 MBD (1-161) [2] = biological target: T1, GST-MBD1 MBD (1-161); remark: listed apart in the source
GST-MBD1 MBD (1-161) [3] = biological target: T1, GST-MBD1 MBD (1-161); remark: listed apart in the source
GST-MBD1 MBD (1-161) [4] = biological target: T1, GST-MBD1 MBD (1-161); remark: listed apart in the source
GST-MBD1 MBD (1-161) [5] = biological target: T1, GST-MBD1 MBD (1-161); remark: listed apart in the source

Row | Binder | binding result (MBD1 CXXC3) | further results
1 | B1 |  | binding result (GST-MBD1 MBD (1-161) [1]): binds
2 | B2 | binds | 
3 | B3 |  | binding result (GST-MBD1 MBD (1-161) [2]): binds
4 | B4 | binds | 
5 | B5 | binds | 
6 | B6 |  | binding result (GST-MBD1 MBD (1-161) [3]): binds
7 | B7 | binds | 
8 | B8 | binds | 
9 | B9 | binds | 
10 | B10 | binds | 
11 | B11 |  | binding result (GST-MBD1 MBD (1-161) [4]): binds
12 | B12 |  | binding result (GST-MBD1 MBD (1-161) [5]): binds
